Source: patent US20050074821A1 (Amgen, published 2005)

Legend:
[1] = biological target: recombinant rat beta-NGF (R&D Systems) (rat, UniProt P25427 122-241); test: cell-based or functional assay
[2] = biological target: T1, recombinant human NGF 1-120 (human, UniProt P01138 122-241); test: cell-based or functional assay
Target sequence in this assay (P01138 other isoform, or with tags, fused parts or gaps): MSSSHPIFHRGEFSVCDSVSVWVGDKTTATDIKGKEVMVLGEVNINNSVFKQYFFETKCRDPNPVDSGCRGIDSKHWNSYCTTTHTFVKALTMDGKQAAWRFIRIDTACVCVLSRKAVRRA

[3] = biological target: T1, recombinant human NGF 1-120; test: cell-based or functional assay; remark: listed apart in the source
Target sequence in this assay (P01138 other isoform, or with tags, fused parts or gaps, form in doubt): as the sequence (P01138 other isoform, or with tags, fused parts or gaps) above

[4] = biological target: T2, NGF subtilisin peptide S1 (4.4) SRKAVRR (113-119) (human); test: subtilisin-digested NGF incubated with antibody, Microcon 10 separation, HPLC of bound and unbound fractions
T2 peptide: SRKAVRR

[5] = biological target: T3, NGF subtilisin peptide S2 (28.3) EVMVL (35-39) (human); test: as above
T3 peptide: EVMVL

[6] = biological target: T4, NGF Lys-C peptide K2 (39.5) QAAWRFIRIDTACVCVLSRK (human, Cysteine residues were reduced and carboxymethylated); test: Lys-C digest of NGF incubated with antibody, Microcon 100 separation, reversed phase HPLC
T4 construct: Calculated mass 2452; observed mass 2459.5
T4 peptide: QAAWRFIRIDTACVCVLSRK

[7] = biological target: T5, NGF Lys-C peptide K1 (37.6) SSSHPIFHRGEFSVCDSVSVWVGDK (human, Cysteine residues were reduced and carboxymethylated); test: as above
T5 construct: Calculated mass 2821; observed mass 2828.2
T5 peptide: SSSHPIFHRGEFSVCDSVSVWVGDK

[8] = biological target: T1, recombinant human NGF 1-120; test: KinExA; 10 pM and 30 pM Ab 4D4 equilibrated with huNGF in solution for 8 h, free antibody captured on huNGF-coated beads, dual-curve one-site fit
Target sequence in this assay (P01138 other isoform, or with tags, fused parts or gaps, form in doubt): as the sequence (P01138 other isoform, or with tags, fused parts or gaps) above

[9] = biological target: T1, recombinant human NGF 1-120; test: cell-based or functional assay; remark: listed apart in the source
Target sequence in this assay (P01138 other isoform, or with tags, fused parts or gaps, form in doubt): as the sequence (P01138 other isoform, or with tags, fused parts or gaps) above

[10] = biological target: T6, synthetic hNGF peptide 33582-27-16 WNSYATTTHTFVKALC (76-90) (human, C-terminal cysteine tail, conjugated to a maleimide activated plate); test: peptide ELISA, Ab binding signal; peptide #16, internal, 76-90
T6 construct: also called Peptide # 16; peptide #16
T6 peptide: WNSYATTTHTFVKALC

[11] = biological target: T7, synthetic hNGF peptide 33582-27-19 TMDGKQAAWRFIRIDC (91-105) (human, C-terminal cysteine tail, conjugated to a maleimide activated plate); test: peptide ELISA, Ab binding signal; peptide #19, internal, 91-105
T7 construct: also called Peptide # 19; peptide #19
T7 peptide: TMDGKQAAWRFIRIDC

[12] = biological target: T8, synthetic hNGF peptide 33582-27-10 NSVFKQYFFETKARDC (46-60) (human, C-terminal cysteine tail, conjugated to a maleimide activated plate); test: peptide ELISA, Ab binding signal; peptide #10, L2, 46-60
T8 construct: also called Peptide # 10; peptide #10
T8 peptide: NSVFKQYFFETKARDC

[13] = biological target: T9, synthetic hNGF peptide 33582-27-01 SSSHPIFHRGEFSVC (1-15) (human, conjugated through cysteine to a maleimide activated plate); test: peptide ELISA, Ab binding signal; peptide #1, N-terminus, 1-15
T9 construct: also called Peptide # 1; peptide #1
T9 peptide: SSSHPIFHRGEFSVC

[14] = biological target: T10, synthetic hNGF peptide 33582-27-20 QAAWRFIRIDTAAVC (96-110) (human, conjugated through cysteine to a maleimide activated plate); test: peptide ELISA, Ab binding signal; peptides # 20-21, C-terminus, 96-115
T10 construct: also called Peptide # 20
T10 peptide: QAAWRFIRIDTAAVC

[15] = biological target: T11, synthetic hNGF peptide 33582-27-21 FIRIDTAAVAVLSRKC (101-115) (human, C-terminal cysteine tail, conjugated to a maleimide activated plate); test: as above
T11 construct: also called Peptide # 21
T11 peptide: FIRIDTAAVAVLSRKC

[16] = biological target: T12, synthetic hNGF peptide 33582-27-18 FVKALTMDGKQAAWRC (86-100) (human, C-terminal cysteine tail, conjugated to a maleimide activated plate); test: ELISA, peptide conjugated to maleimide plate, 4D4.IgG1 at 0, 3, 10, 30 ug/ml, anti-hFc-HRP
T12 construct: also called Peptide # 18
T12 peptide: FVKALTMDGKQAAWRC

[17] = biological target: T13, synthetic hNGF peptide 33582-27-17 TTTHTFVKALTMDGKC (81-95) (human, C-terminal cysteine tail, conjugated to a maleimide activated plate); test: peptide ELISA, Ab binding signal; peptide #17, L4, 81-95
T13 construct: also called Peptide # 17; peptide #17
T13 peptide: TTTHTFVKALTMDGKC

Chain of recombinant rat beta-NGF (R&D Systems) (P25427 122-241 limits assumed): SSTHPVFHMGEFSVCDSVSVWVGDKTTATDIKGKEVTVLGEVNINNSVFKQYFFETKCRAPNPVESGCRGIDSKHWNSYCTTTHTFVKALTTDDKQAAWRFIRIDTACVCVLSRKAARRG

B1: anti-NGF antibody 14D11 (antibody, V domains shown)
VH: EVQLVQSGAEVKKPGESLKISCKGSGYNFTTYWIGWVRQMPGKGLEWMGIIYPGDSDTKYSPSFQGQVTISADKSISTAYLQWSSLKASDTAMYYCARNYYGSGTYYYYYGMNVWGQGTTVTVSS
VL: DIQMTQSPSSVSASVGDRVTITCRASQGISIWLAWYQHKPGKAPKLLIYAASSLQSGVPSRFSGSGSGTDFTLTISSLQPEDFATYYCQQANSFPWTFGQGTKVEIK
For B1, the IC50 @ rNGF (nM), DRG neuron NGF neutralization assay; clone 14D11 [1] was greater than 20 nM and the IC50 @ hNGF (nM), DRG neuron NGF neutralization assay; clone 14D11 [2] was 0.28 nM.

B2: anti-NGF monoclonal antibody 4D4 (antibody, V domains shown)
VH: EVQLVESGGGLVQPGGSLRLSCAASGFTLRSYSMNWVRQAPGKGLEWVSYISRSSHTIFYADSVKGRFTISRDNAKNSLYLQMDSLRDEDTAMYYCARVYSSGWHVSDYFDYWGQGILVTVSS
VL: AIQLTQSPSSLSASVGDRVTITCRASQGISSALAWYQQKPGKAPKLLIYDASSLESGVPSRFSGSGSGTDFTLTISSLQPEDFATYYCQQFNSYPLTFGGGTKVEIK
notes: also called 4D4.D7; #124 (parent)
In the case of B2, the “IC50, inhibition of NGF-induced VR1 expression in rat DRG neurons; sample 119 (from 124)” value [3] is reported as less than 1.2 nM, the “IC50, inhibition of NGF-induced VR1 expression in rat DRG neurons; sample 124 (parent)” value [3] is reported as less than 0.57 nM and the “IC50, inhibition of NGF-induced VR1 expression in rat DRG neurons; sample 125 (from 124)” value [3] is reported as less than 0.3 nM. The “IC50, inhibition of NGF-induced VR1 expression in rat DRG neurons; sample 167 (from same sample as 124)” value [3] was 0.5 nM, the binding result [4] was “binds” and the binding result [5] was “binds”. The binding result [6] was “binds”, the binding result [7] was “binds” and the Kd [8] was roughly 0.004 nM.

B3: 4D4.IgG1 (recombinant anti-NGF 4D4 antibody with IgG1 heavy chain constant region) (antibody, V domains shown)
VH: B2 VH
VL: AIQLTQSPSSLSASVGDRVTITCRASQGISSALAWYQQKPGKAPKLLIYDASSLESGVPSRFSGSGSGTDFTLTISSLQPEDFATYYCQQFNSYPLTFGGGTKVEIKR
notes: also called 4D4.IgG1.S; human anti-hNGF Ab 4D4.IgG1
For B3, the “IC50 @ rNGF (nM), DRG neuron based NGF neutralization bioassay; 4D4.IgG1.R” value [1] was greater than 34 nM, the “IC50 @ rNGF (nM), DRG neuron based NGF neutralization bioassay; 4D4.IgG1.S” value [1] was greater than 45 nM and the “IC50 @ hNGF (nM), DRG neuron based NGF neutralization bioassay; 4D4.IgG1.R” value [9] was 0.149 nM. The “IC50 @ hNGF (nM), DRG neuron based NGF neutralization bioassay; 4D4.IgG1.S” value [9] was 0.159 nM, the binding result [10] was “binds” and the binding result [11] was “binds”. B3: binds [12]; binds [13]; binds [14]. B3: binds [15]; binds [16]; binds [17].

B4: anti-NGF antibody 14D10 (antibody, V domains shown)
VH: EVQLVESGGGLVQPGRSLRLSCTASGFTFEDYAMHWVRQAPGKGLEWVSGISWNRGIIGYADSVKGRFTVSRDNAKNSLYLQMNSLRAEDTALYYCAKEGYYGSGRPGYFYYVMDVWGQGTTVTVSS
VL: EIVLTQSPGTLSLSPGERATLSCRASQSVSSGFLAWFQQKPGQAPRLLIYGASSRATAIPDRFSGSGSGTDFTLTISRLEPEDFAVYYCQQYGSSPYTFGQGTKLEIK
Work on B4 yielded an IC50 @ rNGF (nM), DRG neuron NGF neutralization assay; clone 14D10 [1] greater than 13 nM and an IC50 @ hNGF (nM), DRG neuron NGF neutralization assay; clone 14D10 [2] of 0.392 nM.
